Source: publication PMC7222407

Target: Cu,Zn superoxide dismutase (SOD1) from Chionodraco hamatus (Chionodraco hamatus)
Assay: SEC; gel exclusion chromatography on a Sephadex G-75 column against standards (bovine serum albumin, ovalbumin, chymotrypsinogen A, cytochrome c); native mass compared with the monomer mass from SDS-PAGE with 2-mercaptoethanol and MALDI-TOF

Cu,Zn superoxide dismutase (SOD1) from Chionodraco hamatus (enzyme)
stoichiometry N: 2
